Biological target: T1, Apo-2 ligand (soluble Apo-2L, Pitti et al.) (UniProt P50591 114-281)
T1 construct: also called TRAIL; 125I-Apo-2L
Experiment: 125I-Apo-2L binding to Apo-2DcR-transfected 293 cells; nonspecific binding with 0.5 ug/ml unlabeled Apo-2L

T1 sequence (P50591 114-281 limits assumed): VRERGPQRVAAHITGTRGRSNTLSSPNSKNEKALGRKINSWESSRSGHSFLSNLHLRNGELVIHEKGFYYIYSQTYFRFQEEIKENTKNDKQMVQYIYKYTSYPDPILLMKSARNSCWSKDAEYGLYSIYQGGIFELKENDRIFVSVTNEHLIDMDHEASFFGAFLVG

binding result: binds
B1: full-length native sequence human Apo-2DcR (receptor)
chain: ATTARQEEVPQQTVAPQQQRHSFKGEECPAGSHRSEHTGACNPCTEGVDYTNASNNEPSCFPCTVCKSDQKHKSSCTMTRDTVCQCKEGTFRNENSPEMCRKCSRCPSGEVQVSNCTSWDDIQCVEEFGANATVETPAAEETMNTSPGTPAPAAEETMNTSPGTPAPAAEETMTTSPGTPAPAAEETMTTSPGTPAPAAEETMTTSPGTPA
notes: also called Apo-2DcR receptor; pRK5-hApo-2DcR product

Source: patent publication US20020102706A1 (published 2002)
